Assay results published in US20230287113A1 (NANTBIO, published 2023).
Numbering of substitutions follows the chain as printed.

T1: human TIM-3 (T-cell immunoglobulin mucin receptor 3) (human, UniProt Q8TDQ0 22-202, limits assumed)
T1 sequence (looked up): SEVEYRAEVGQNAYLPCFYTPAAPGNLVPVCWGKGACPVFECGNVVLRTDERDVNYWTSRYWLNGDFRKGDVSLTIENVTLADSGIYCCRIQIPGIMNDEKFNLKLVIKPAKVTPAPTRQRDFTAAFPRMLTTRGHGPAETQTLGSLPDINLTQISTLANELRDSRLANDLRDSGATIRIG

B1: anti-TIM-3 IgG1 antibody 64-6 (antibody, V domains shown)
VH: EVQLVESGGGLVQPGGSLRLSCAASGFTFSRYAMHWVRQAPGKGLEWVSAISGSGGYTYYADSVKGRFTISRDNSKNTLYLQMNSLRAEDTAVYYCARDRHWVLSAFDVWGQGTLVTVSS
VL: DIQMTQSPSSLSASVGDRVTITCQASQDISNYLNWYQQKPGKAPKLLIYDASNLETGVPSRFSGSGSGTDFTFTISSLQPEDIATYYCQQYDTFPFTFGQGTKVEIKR
notes: human IgG1; also called aTIM-3 IgG1 64-6
B2: anti-TIM-3 IgG1 antibody 66-6 (antibody, V domains shown)
VH: B1 VH with R31K, Y57S, R100L, H101D, W102Y, V103R, L104F, A106G
VL: DIQMTQSPSSLSASVGDRVTITCQASQDISNYLNWYQQKPGKAPKLLIYDASNLETGVPSRFSGSGSGTDFTFTISSLQPEDIATYYCQQFAAIPLTFGQGTKVEIKR
notes: human IgG1; The printed HC begins with M before EVQL; also called aTIM-3 IgG1 66-6
B3: anti-TIM-3 IgG1 antibody 64-32 (antibody, V domains shown)
VH: B1 VH with R31K, R100L, H101D, W102F, V103R, L104I, S105V, A106G
VL: B2 VL with A92N, A93T, I94V
notes: human IgG1; The printed HC begins with M before EVQL; also called aTIM-3 IgG1 64-32
B4: anti-TIM-3 IgG1 antibody 64-39 (antibody, V domains shown)
VH: B1 VH with A50G, Y57G, R100L, H101D, W102Y, V103R, L104V, A106G
VL: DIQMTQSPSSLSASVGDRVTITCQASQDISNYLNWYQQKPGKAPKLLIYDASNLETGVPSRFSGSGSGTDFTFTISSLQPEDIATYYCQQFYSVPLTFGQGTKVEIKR
notes: human IgG1; The printed HC begins with M before EVQL; also called aTIM-3 IgG1 64-39
B5: anti-TIM-3 IgG1 antibody 64-31 (antibody, V domains shown)
VH: EVQLVESGGGLVQPGGSLRLSCAASGFTFSAYAMHWVRQAPGKGLEWVSAINGNGGRTYYADSVKGRFTISRDNSKNTLYLQMNSLRAEDTAVYYCARDLTRTVPFAFDVWGQGTLVTVSS
VL: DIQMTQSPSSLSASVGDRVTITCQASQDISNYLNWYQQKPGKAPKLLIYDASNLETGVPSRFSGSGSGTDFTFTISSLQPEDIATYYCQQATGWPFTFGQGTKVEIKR
notes: human IgG1; The printed HC begins with M before EVQL; also called aTIM-3 IgG1 64-31
B6: anti-TIM-3 IgG1 antibody 64-15 (antibody, V domains shown)
VH: EVQLVESGGGLVQPGGSLRLSCAASGFTFSSYYMHWVRQAPGKGLEWVSGISGSGGSTYYADSVKGRFTISRDNSKNTLYLQMNSLRAEDTAVYYCARGRGAWPFTRVVAFDVWGQGTLVTVSS
VL: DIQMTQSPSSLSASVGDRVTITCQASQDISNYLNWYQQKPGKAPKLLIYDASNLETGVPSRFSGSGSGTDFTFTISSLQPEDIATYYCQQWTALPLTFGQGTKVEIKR
notes: human IgG1; also called aTIM-3 IgG1 64-15

These binders were tested against T1, human TIM-3 (T-cell immunoglobulin …) (assay: SPR (Pioneer FE) or Octet (Red96e), IgG1 captured by anti-human Fc / AHC sensor, human TIM-3 analyte, 37 C).
From the text: (§1) In one typical example, the inventors prepared antibodies using the above HC and LC sequences with matching preceding numbers and tested the so prepared antibodies for TIM3 binding. […] All values are ×10⁻⁹M. anti-TIM-3 IgG1 antibodies were captured on the chip surface using anti-human Fc antibody (SPR) or AHC sensor (Octet), and human TIM-3 was the analyte.
Work on B1 yielded a Kd of 2.5 nM.
B2 gave a Kd of 7.01 nM.
B3 showed a Kd of 0.92 nM.
With B4 the Kd was 6.39 nM.
In the case of B5, the Kd is reported as 36.5 nM.
For B6, the Kd was 5.4 nM.

The binders below were run against T1, human TIM-3 (T-cell immunoglobulin …) (assay: SPR (Pioneer FE) or Octet (Red96e), IgG1 captured by anti-human Fc / AHC sensor, human TIM-3 analyte, 25 C).
From the text: as §1
With B1 the Kd was 0.46 nM.
With B2 the Kd was 1.69 nM.
B3 gave a Kd of 0.39 nM.
Work on B4 yielded a Kd of 1.53 nM.
B5 gave a Kd of 10.4 nM.
B6 was tested, and the Kd was 0.71 nM.

The binders below were run against T1, human TIM-3 (T-cell immunoglobulin …) (assay: ratio of KD at 37 C to KD at 25 C, SPR or Octet).
From the text: as §1
For B1, the “KD difference between 25° C. and 37° C. (fold)” value was 5.43 fold.
With B2 the “KD difference between 25° C. and 37° C. (fold)” value was 4.15 fold.
With B3 the “KD difference between 25° C. and 37° C. (fold)” value was 2.36 fold.
For B4, the “KD difference between 25° C. and 37° C. (fold)” value was 4.18 fold.
In the case of B5, the “KD difference between 25° C. and 37° C. (fold)” value is reported as 3.51 fold.
In the case of B6, the “KD difference between 25° C. and 37° C. (fold)” value is reported as 7.61 fold.
